Assay results: paper doi:10.1101/2023.06.06.543969

Assays:
Assay in all cases: BLI
[1] = biological target: SARS-CoV-2 spike
[2] = biological target: HC84.26.5D Fab VH G50R (human)
[3] = biological target: His-tagged HIV Env MPER peptide
[4] = biological target: biotinylated SARS-CoV-2 fusion peptide
[5] = biological target: HCV E2 envelope glycoprotein

COVOX-316 VH:W50R
ratio to parent [1]: > 100

HCV (isolate H77) E2 domain (domain or fragment)
fold change in KD against the wild type [2]: 6 fold

4E10 Fab (WT) VH:G50R
ratio to parent [3]: > 100

COV44–62 Fab (WT) VH:R50W
ratio to parent [4]: > 100

P008_60 VH:S52R
ratio to parent [1]: > 100

HCV1 VH:W52S
ratio to parent [5]: > 100

HC33.8 VH:S52Y
ratio to parent [5]: > 100
